Numbered stars: 1 amine (or outer) side, 2 acyl side, 3 side chain; on linkers, the order of the positions; unused ones are H or OH. Bridge positions count the residues as written; N and C are the ends. Side chains are listed from the residue outwards. Ends that are not written are not given here. * marks the point of attachment. C20 diacid = O=C(O)CCCCCCCCCCCCCCCCCCC(=O)*; γGlu = O=C(O)[C@H](CCC(=O)[*:2])N[*:1]
T1: human amylin receptor (human, UniProt P30988 25-474; O60896 24-148, limits assumed)
T1 construct: whole, on cells; Calcitonin receptor plus RAMP-3 gives the amylin 3(a) receptor; membranes of Amylin 3(a)/CRE-luc cells were used; also called hAmylin-R; hAmylinR
T1 sequence (looked up) 1: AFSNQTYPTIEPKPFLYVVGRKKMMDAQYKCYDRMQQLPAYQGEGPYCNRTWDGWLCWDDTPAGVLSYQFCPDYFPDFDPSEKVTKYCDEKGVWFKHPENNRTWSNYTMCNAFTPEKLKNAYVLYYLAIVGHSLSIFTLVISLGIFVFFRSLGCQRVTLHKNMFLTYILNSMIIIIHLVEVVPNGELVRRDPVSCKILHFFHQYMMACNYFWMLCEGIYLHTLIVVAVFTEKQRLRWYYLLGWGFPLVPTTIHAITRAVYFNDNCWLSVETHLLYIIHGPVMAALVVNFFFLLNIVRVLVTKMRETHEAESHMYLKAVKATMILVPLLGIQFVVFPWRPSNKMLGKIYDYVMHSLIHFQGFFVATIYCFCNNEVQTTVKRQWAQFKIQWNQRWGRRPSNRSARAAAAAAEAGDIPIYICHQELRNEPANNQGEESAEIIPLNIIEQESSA
T1 sequence (looked up) 2: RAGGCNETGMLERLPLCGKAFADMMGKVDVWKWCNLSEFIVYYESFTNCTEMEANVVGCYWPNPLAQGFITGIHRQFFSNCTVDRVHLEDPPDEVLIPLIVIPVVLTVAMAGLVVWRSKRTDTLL

B1: N^ε1-[(4S)-4-carboxy-4-(19-carboxynonadecanoylamino)butanoyl]-[His14,Arg17,Pro21,Pro27]-h-amylin (peptide)
peptide: K([γGlu-C20 diacid])CNTATCATQRLAHFLRHSSPNFGAIPSSTNVGSNTY-NH2
modifications: disulfide 2-7; N-terminus assumed
SMILES: CC[C@H](C)[C@H](NC(=O)[C@H](C)NC(=O)CNC(=O)[C@H](Cc1ccccc1)NC(=O)[C@H](CC(N)=O)NC(=O)[C@@H]1CCCN1C(=O)[C@H](CO)NC(=O)[C@H](CO)NC(=O)[C@H](Cc1c[nH]cn1)NC(=O)[C@H](CCCNC(=N)N)NC(=O)[C@H](CC(C)C)NC(=O)[C@H](Cc1ccccc1)NC(=O)[C@H](Cc1c[nH]cn1)NC(=O)[C@H](C)NC(=O)[C@H](CC(C)C)NC(=O)[C@H](CCCNC(=N)N)NC(=O)[C@H](CCC(N)=O)NC(=O)[C@@H](NC(=O)[C@H](C)NC(=O)[C@@H]1CSSC[C@H](NC(=O)[C@@H](N)CCCCNC(=O)CC[C@H](NC(=O)CCCCCCCCCCCCCCCCCCC(=O)O)C(=O)O)C(=O)N[C@@H](CC(N)=O)C(=O)N[C@@H]([C@@H](C)O)C(=O)N[C@@H](C)C(=O)N[C@@H]([C@@H](C)O)C(=O)N1)[C@@H](C)O)C(=O)N1CCC[C@H]1C(=O)N[C@@H](CO)C(=O)N[C@@H](CO)C(=O)N[C@H](C(=O)N[C@@H](CC(N)=O)C(=O)N[C@H](C(=O)NCC(=O)N[C@@H](CO)C(=O)N[C@@H](CC(N)=O)C(=O)N[C@H](C(=O)N[C@@H](Cc1ccc(O)cc1)C(N)=O)[C@@H](C)O)C(C)C)[C@@H](C)O
notes: also called 14H, 17R, 21P, 27P
B2: N^ε1-[(4S)-4-carboxy-4-[[(4S)-4-carboxy-4-(19-carboxynonadecanoylamino)butanoyl]amino]butanoyl]-[Asp14,Arg17,Pro21,Pro27,Arg35]-h-amylin (peptide)
peptide: K([γGlu-γGlu-C20 diacid])CNTATCATQRLADFLRHSSPNFGAIPSSTNVGSRTY-NH2
modifications: disulfide 2-7; N-terminus assumed
SMILES: CC[C@H](C)[C@H](NC(=O)[C@H](C)NC(=O)CNC(=O)[C@H](Cc1ccccc1)NC(=O)[C@H](CC(N)=O)NC(=O)[C@@H]1CCCN1C(=O)[C@H](CO)NC(=O)[C@H](CO)NC(=O)[C@H](Cc1c[nH]cn1)NC(=O)[C@H](CCCNC(=N)N)NC(=O)[C@H](CC(C)C)NC(=O)[C@H](Cc1ccccc1)NC(=O)[C@H](CC(=O)O)NC(=O)[C@H](C)NC(=O)[C@H](CC(C)C)NC(=O)[C@H](CCCNC(=N)N)NC(=O)[C@H](CCC(N)=O)NC(=O)[C@@H](NC(=O)[C@H](C)NC(=O)[C@@H]1CSSC[C@H](NC(=O)[C@@H](N)CCCCNC(=O)CC[C@H](NC(=O)CC[C@H](NC(=O)CCCCCCCCCCCCCCCCCCC(=O)O)C(=O)O)C(=O)O)C(=O)N[C@@H](CC(N)=O)C(=O)N[C@@H]([C@@H](C)O)C(=O)N[C@@H](C)C(=O)N[C@@H]([C@@H](C)O)C(=O)N1)[C@@H](C)O)C(=O)N1CCC[C@H]1C(=O)N[C@@H](CO)C(=O)N[C@@H](CO)C(=O)N[C@H](C(=O)N[C@@H](CC(N)=O)C(=O)N[C@H](C(=O)NCC(=O)N[C@@H](CO)C(=O)N[C@@H](CCCNC(=N)N)C(=O)N[C@H](C(=O)N[C@@H](Cc1ccc(O)cc1)C(N)=O)[C@@H](C)O)C(C)C)[C@@H](C)O
notes: also called 14D, 17R, 21P, 27P, 35R
B3: N^ε1-[(4S)-4-carboxy-4-[[(4S)-4-carboxy-4-(19-carboxynonadecanoylamino)butanoyl]amino]butanoyl]-[Asp14,Arg17,Pro21,Pro27,Asp35]-h-amylin (peptide)
peptide: K([γGlu-γGlu-C20 diacid])CNTATCATQRLADFLRHSSPNFGAIPSSTNVGSDTY-NH2
modifications: disulfide 2-7; N-terminus assumed
SMILES: CC[C@H](C)[C@H](NC(=O)[C@H](C)NC(=O)CNC(=O)[C@H](Cc1ccccc1)NC(=O)[C@H](CC(N)=O)NC(=O)[C@@H]1CCCN1C(=O)[C@H](CO)NC(=O)[C@H](CO)NC(=O)[C@H](Cc1c[nH]cn1)NC(=O)[C@H](CCCNC(=N)N)NC(=O)[C@H](CC(C)C)NC(=O)[C@H](Cc1ccccc1)NC(=O)[C@H](CC(=O)O)NC(=O)[C@H](C)NC(=O)[C@H](CC(C)C)NC(=O)[C@H](CCCNC(=N)N)NC(=O)[C@H](CCC(N)=O)NC(=O)[C@@H](NC(=O)[C@H](C)NC(=O)[C@@H]1CSSC[C@H](NC(=O)[C@@H](N)CCCCNC(=O)CC[C@H](NC(=O)CC[C@H](NC(=O)CCCCCCCCCCCCCCCCCCC(=O)O)C(=O)O)C(=O)O)C(=O)N[C@@H](CC(N)=O)C(=O)N[C@@H]([C@@H](C)O)C(=O)N[C@@H](C)C(=O)N[C@@H]([C@@H](C)O)C(=O)N1)[C@@H](C)O)C(=O)N1CCC[C@H]1C(=O)N[C@@H](CO)C(=O)N[C@@H](CO)C(=O)N[C@H](C(=O)N[C@@H](CC(N)=O)C(=O)N[C@H](C(=O)NCC(=O)N[C@@H](CO)C(=O)N[C@@H](CC(=O)O)C(=O)N[C@H](C(=O)N[C@@H](Cc1ccc(O)cc1)C(N)=O)[C@@H](C)O)C(C)C)[C@@H](C)O
notes: also called 14D, 17R, 21P, 27P, 35D
B4: N^ε1-[(4S)-4-carboxy-4-[[(4S)-4-carboxy-4-(19-carboxynonadecanoylamino)butanoyl]amino]butanoyl]-[Asp14,Arg17,Pro21,Pro27,Pro34,Glu35]-h-amylin (peptide)
peptide: K([γGlu-γGlu-C20 diacid])CNTATCATQRLADFLRHSSPNFGAIPSSTNVGPETY-NH2
modifications: disulfide 2-7; N-terminus assumed
SMILES: CC[C@H](C)[C@H](NC(=O)[C@H](C)NC(=O)CNC(=O)[C@H](Cc1ccccc1)NC(=O)[C@H](CC(N)=O)NC(=O)[C@@H]1CCCN1C(=O)[C@H](CO)NC(=O)[C@H](CO)NC(=O)[C@H](Cc1c[nH]cn1)NC(=O)[C@H](CCCNC(=N)N)NC(=O)[C@H](CC(C)C)NC(=O)[C@H](Cc1ccccc1)NC(=O)[C@H](CC(=O)O)NC(=O)[C@H](C)NC(=O)[C@H](CC(C)C)NC(=O)[C@H](CCCNC(=N)N)NC(=O)[C@H](CCC(N)=O)NC(=O)[C@@H](NC(=O)[C@H](C)NC(=O)[C@@H]1CSSC[C@H](NC(=O)[C@@H](N)CCCCNC(=O)CC[C@H](NC(=O)CC[C@H](NC(=O)CCCCCCCCCCCCCCCCCCC(=O)O)C(=O)O)C(=O)O)C(=O)N[C@@H](CC(N)=O)C(=O)N[C@@H]([C@@H](C)O)C(=O)N[C@@H](C)C(=O)N[C@@H]([C@@H](C)O)C(=O)N1)[C@@H](C)O)C(=O)N1CCC[C@H]1C(=O)N[C@@H](CO)C(=O)N[C@@H](CO)C(=O)N[C@H](C(=O)N[C@@H](CC(N)=O)C(=O)N[C@H](C(=O)NCC(=O)N1CCC[C@H]1C(=O)N[C@@H](CCC(=O)O)C(=O)N[C@H](C(=O)N[C@@H](Cc1ccc(O)cc1)C(N)=O)[C@@H](C)O)C(C)C)[C@@H](C)O
notes: also called 14D, 17R, 21P, 27P, 34P, 35E
B5: N^ε1-[(4S)-4-carboxy-4-[[(4S)-4-carboxy-4-(19-carboxynonadecanoylamino)butanoyl]amino]butanoyl]-[Glu14,Arg17,Pro21,Pro27,Arg34,Glu35]-h-amylin (peptide)
peptide: K([γGlu-γGlu-C20 diacid])CNTATCATQRLAEFLRHSSPNFGAIPSSTNVGRETY-NH2
modifications: disulfide 2-7; N-terminus assumed
SMILES: CC[C@H](C)[C@H](NC(=O)[C@H](C)NC(=O)CNC(=O)[C@H](Cc1ccccc1)NC(=O)[C@H](CC(N)=O)NC(=O)[C@@H]1CCCN1C(=O)[C@H](CO)NC(=O)[C@H](CO)NC(=O)[C@H](Cc1c[nH]cn1)NC(=O)[C@H](CCCNC(=N)N)NC(=O)[C@H](CC(C)C)NC(=O)[C@H](Cc1ccccc1)NC(=O)[C@H](CCC(=O)O)NC(=O)[C@H](C)NC(=O)[C@H](CC(C)C)NC(=O)[C@H](CCCNC(=N)N)NC(=O)[C@H](CCC(N)=O)NC(=O)[C@@H](NC(=O)[C@H](C)NC(=O)[C@@H]1CSSC[C@H](NC(=O)[C@@H](N)CCCCNC(=O)CC[C@H](NC(=O)CC[C@H](NC(=O)CCCCCCCCCCCCCCCCCCC(=O)O)C(=O)O)C(=O)O)C(=O)N[C@@H](CC(N)=O)C(=O)N[C@@H]([C@@H](C)O)C(=O)N[C@@H](C)C(=O)N[C@@H]([C@@H](C)O)C(=O)N1)[C@@H](C)O)C(=O)N1CCC[C@H]1C(=O)N[C@@H](CO)C(=O)N[C@@H](CO)C(=O)N[C@H](C(=O)N[C@@H](CC(N)=O)C(=O)N[C@H](C(=O)NCC(=O)N[C@@H](CCCNC(=N)N)C(=O)N[C@@H](CCC(=O)O)C(=O)N[C@H](C(=O)N[C@@H](Cc1ccc(O)cc1)C(N)=O)[C@@H](C)O)C(C)C)[C@@H](C)O
notes: also called 14E, 17R, 21P, 27P, 34R, 35E
B6: N^ε1-[(4S)-4-carboxy-4-[[(4S)-4-carboxy-4-(19-carboxynonadecanoylamino)butanoyl]amino]butanoyl]-[Glu14,Arg17,Pro21,Pro27,Arg34]-h-amylin (peptide)
peptide: K([γGlu-γGlu-C20 diacid])CNTATCATQRLAEFLRHSSPNFGAIPSSTNVGRNTY-NH2
modifications: disulfide 2-7; N-terminus assumed
SMILES: CC[C@H](C)[C@H](NC(=O)[C@H](C)NC(=O)CNC(=O)[C@H](Cc1ccccc1)NC(=O)[C@H](CC(N)=O)NC(=O)[C@@H]1CCCN1C(=O)[C@H](CO)NC(=O)[C@H](CO)NC(=O)[C@H](Cc1c[nH]cn1)NC(=O)[C@H](CCCNC(=N)N)NC(=O)[C@H](CC(C)C)NC(=O)[C@H](Cc1ccccc1)NC(=O)[C@H](CCC(=O)O)NC(=O)[C@H](C)NC(=O)[C@H](CC(C)C)NC(=O)[C@H](CCCNC(=N)N)NC(=O)[C@H](CCC(N)=O)NC(=O)[C@@H](NC(=O)[C@H](C)NC(=O)[C@@H]1CSSC[C@H](NC(=O)[C@@H](N)CCCCNC(=O)CC[C@H](NC(=O)CC[C@H](NC(=O)CCCCCCCCCCCCCCCCCCC(=O)O)C(=O)O)C(=O)O)C(=O)N[C@@H](CC(N)=O)C(=O)N[C@@H]([C@@H](C)O)C(=O)N[C@@H](C)C(=O)N[C@@H]([C@@H](C)O)C(=O)N1)[C@@H](C)O)C(=O)N1CCC[C@H]1C(=O)N[C@@H](CO)C(=O)N[C@@H](CO)C(=O)N[C@H](C(=O)N[C@@H](CC(N)=O)C(=O)N[C@H](C(=O)NCC(=O)N[C@@H](CCCNC(=N)N)C(=O)N[C@@H](CC(N)=O)C(=O)N[C@H](C(=O)N[C@@H](Cc1ccc(O)cc1)C(N)=O)[C@@H](C)O)C(C)C)[C@@H](C)O
notes: also called 14E, 17R, 21P, 27P, 34R

molecular target: T1, human amylin receptor; assay: SPA competition binding, displacement of 125I-rat amylin from membranes with human amylin 3(a) receptor (Assay V)
Summary of the method: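 One-site competition analysis of SPA counts yielded IC₅₀ as a measure of affinity. Membranes were at 35 ng/μL final; incubation was 120 min at 25° C, pH 7.4.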

IC50 | Binder
0.169 nM | B1
0.697 nM | B2
0.411 nM | B3
0.172 nM | B4
0.957 nM | B5
0.75 nM | B6

Source: patent US20140087995A1 (published 2014)
